Literature values in patent publication US10472401B2, “Peptides and combination of peptides for use in immunotherapy against ovarian cancer and other cancers” (immatics biotechnologies GmbH, priority 2015, dated 2019).

Test system: ovarian cancer
Details: clinical studies

B1: abagovomab (antibody, chains of the INN, looked up, V domains shown)
VH: QVKLQESGAELARPGASVKLSCKASGYTFTNYWMQWVKQRPGQGLDWIGAIYPGDGNTRYTHKFKGKATLTADKSSSTAYMQLSSLASEDSGVYYCARGEGNYAWFAYWGQGTTVTVSS
VL: DIELTQSPASLSASVGETVTITCQASENIYSYLAWHQQKQGKSPQLLVYNAKTLAGGVSSRFSGSGSGTHFSLKIKSLQPEDFGIYYCQHHYGILPTFGGGTKLEIK
notes: anti-CA-125 antibody
  clinical results in ovarian cancer patients: promising results in phase II and III studies
